Source: PMC4183622
Blank lines part the entries; values can stand above or below the substance they belong to.

How the values were obtained:
[1] = target: Tre (core traptavidin with a C-terminal hexaglutamate tag), homotetramer Tre4; assay: mixed refolding, ion-exchange chromatography and SDS-PAGE with or without boiling; subunits refolded from dissolved inclusion bodies (alone or mixed) by dilution into PBS; tetramers separated on Q-HP with a NaCl gradient in 20 mM Tris-HCl pH 8.0; tetramers stay assembled on SDS-PAGE unless boiled
[2] = target: Tr3DCatch1 (chimeric SpyAvidin tetramer of three core traptavidin subunits and one Dead streptavidin-SpyCatcher subunit) (UniProt P22629); assay: gel shift on SDS-PAGE of unboiled samples, Coomassie staining; SpyAvidin tetramer incubated with the ligand for 1 h at room temperature in PBS; the SpyTag/SpyCatcher link is a covalent isopeptide bond
[3] = target: Tr (core traptavidin), homotetramer Tr4; assay: mixed refolding, ion-exchange chromatography and SDS-PAGE with or without boiling; subunits refolded from dissolved inclusion bodies (alone or mixed) by dilution into PBS; tetramers separated on Q-HP with a NaCl gradient in 20 mM Tris-HCl pH 8.0; tetramers stay assembled on SDS-PAGE unless boiled

stoichiometry N [1]: 4
Substance: Tre (core traptavidin with a C-terminal hexaglutamate tag), homotetramer Tre4 (complex)

Substance: KTag-AffiHER2-SpyTag (SpyTag-linked affibody against HER2)
stoichiometry N [2]: 1

stoichiometry N [3]: 4
Substance: Tr (core traptavidin), homotetramer Tr4 (complex)
